Test results: patent publication US20040067231A1 (published 2004)
Numbering of substitutions follows the chain as printed.

B1: antibody having both a humanized H-chain version “a” and a chimeric L-chain (antibody, V domains shown)
VH: QVQLVESGGGVVQPGRSLRLSCAASGFTFSSYGMSWVRQAPGKGLEWVATISSGGSYTYYPDSVKGRFTISRDNSKNTLYLQMNSLRAEDTAVYYCARQTTMTYFAYWGQGTLVTVSS
VL: QLVLTQSSSASFSLGASAKLTCTLSSQHSTYTIEWYQQQPLKPPKYVMDLKQDGSHSTGDGIPDRFSGSSSGADRYLSISNIQPEDEAMYICGVGDTIKEQFVYVFGGGTKVTVLG
notes: H-chain C-region is human Cγ1
B2: mouse FR1,2/human FR3,4 hybrid antibody with L-chain m/hMBC1Ldλ (antibody, V domains shown)
VH: B1 VH
VL: QLVLTQSSSASFSLGASAKLTCTLSSQHSTYTIEWYQQQPLKPPKYVMDLKQDGSHSTGDGIPDRFSGSSSGAERYLTISSLQSEDEADYICGVGDTIKEQFVYVFGGGTKLTVL
notes: H-chain from hMBC1HcDNA/pCOS1 (humanized version a, human Cγ1); L-chain C-region human λ; Expressed in COS-7 cells
B3: humanized #23-57-137-1 antibody having L-chain version “j” (antibody, V domains shown)
VH: B1 VH
VL: QLVLTQSPSASASLGASVKLTCTLSSQHSTYTIEWYQQQPEKGPKYLMDLKQDGSHSTGDGIPDRFSGSSSGAERYLTISSLQSEDEADYYCGVGDTIKEQFVYVFGGGTKLTVLG
notes: Humanized H-chain version a with human Cγ1; L-chain with human λ C-region (Cλ/pUC19); also called hMBC1HcDNA/pCOS1 and hMBC1Ljλ/pCOS1
B4: humanized #23-57-137-1 antibody having L-chain version “m” (antibody, V domains shown)
VH: B1 VH
VL: B3 VL with K45R
notes: Humanized H-chain version a with human Cγ1; L-chain with human λ C-region; also called hMBC1HcDNA/pCOS1 and hMBC1Lmλ/pCOS1
B5: humanized #23-57-137-1 antibody having L-chain version “o” (antibody, V domains shown)
VH: B1 VH
VL: B3 VL with K45R, L47V
notes: Humanized H-chain version a with human Cγ1; L-chain with human λ C-region; also called hMBC1HcDNA/pCOS1 and hMBC1Loλ/pCOS1
B6: human FR1/mouse FR2,3,4 hybrid antibody with L-chain hmmMBC1L(λ) (antibody, V domains shown)
VH: B1 VH
VL: B2 VL with S8P, F12A, A18V, E74D, T78S, S81N, L82I, S84P, D89M, L112V
notes: H-chain from hMBC1HcDNA/pCOS1 (humanized version a, human Cγ1); L-chain C-region human λ; Expressed in COS-7 cells; also called FR1/FR2 hybrid antibody
B7: mouse FR1,2/human FR3,4 hybrid antibody with L-chain m/hMBC1Laλ (antibody, V domains shown)
VH: B1 VH
VL: B2 VL with I91Y
notes: as for B2
B8: humanized #23-57-137-1 antibody having L-chain version “q” (antibody, V domains shown)
VH: B1 VH
VL: B3 VL with Y91I
notes: Humanized H-chain version a with human Cγ1; L-chain with human λ C-region; also called humanized antibody L-chain version “q”; hMBC1HcDNA and hMBC1Lqλ
B9: humanized #23-57-137-1 antibody having L-chain version “l” (antibody, V domains shown)
VH: B1 VH
VL: B3 VL with L47V
notes: Humanized H-chain version a with human Cγ1; L-chain with human λ C-region; also called hMBC1HcDNA/pCOS1 and hMBC1Llλ/pCOS1
B10: humanized #23-57-137-1 antibody having L-chain version “t” (antibody, V domains shown)
VH: B1 VH
VL: B3 VL with K45R, L47V, Y91I
notes: Humanized H-chain version a with human Cγ1; L-chain with human λ C-region; also called hMBC1HcDNA/pCOS1 and hMBC1Ltλ/pCOS1

Molecular target: T1, human PTHrP (1-34) (human)
T1 construct: Synthetic peptide (Peninsula; Peptide Research Institute); Coated on the ELISA plate at 1 µg/ml; used in solid phase RIA for the hybridoma screening; also called parathyroid hormone related peptide (1-34)
Experiment: ELISA on coated human PTHrP (1-34)
Method: An ELISA plate for determining antigen-binding ability was prepared as follows. Each well of a 96-well ELISA plate (Maxisorp, NUNC) was coated with 100 μl of a coating buffer containing 1 μg/ml of human PTHrP (1-34) and then blocked with 200 μl of a dilution buffer. Subsequently, each well was added with each of the serial dilutions of the COS-7 cell culture supernatant in which each of the hybrid antibodies and humanized antibodies was expressed, or added with each of the serial dilutions of each of the hybrid antibodies and humanized antibodies in a purified form. The plate was incubated at room temperature and washed with PBS-Tween 20. Subsequently, each well was added with 100 μl of alkaline phosphatase-conjugated goat anti-human IgG antibody (TAGO). The plate was incubated at room temperature and washed with PBS-Tween 20. Subsequently, each well was added with 1 mg/ml of a substrate solution (“Sigma 104”, p-nitrophenylphosphoric acid, SIGMA). The solution was measured on its absorbance at 405 nm using Microplate Reader (Bio Rad).

binding result | Binder
binds | B1
binds | B2
binds | B3
binds | B4
binds | B5
binds | B6
binds | B7
binds | B8
binds | B9
binds | B10
